Laboratory results: US20040171105A1 (published 2004)

T1: Omi WT (wild-type mature Omi/HtrA2, C-terminal hexa-His tagged, recombinant from E. coli) (Homo sapiens (humans), UniProt O43464 134-458)
T1 construct: Any N-terminal Met from Nde I cloning is not discussed for the bacterial protein; also called wild-type Omi; PRSS25
T1 sequence: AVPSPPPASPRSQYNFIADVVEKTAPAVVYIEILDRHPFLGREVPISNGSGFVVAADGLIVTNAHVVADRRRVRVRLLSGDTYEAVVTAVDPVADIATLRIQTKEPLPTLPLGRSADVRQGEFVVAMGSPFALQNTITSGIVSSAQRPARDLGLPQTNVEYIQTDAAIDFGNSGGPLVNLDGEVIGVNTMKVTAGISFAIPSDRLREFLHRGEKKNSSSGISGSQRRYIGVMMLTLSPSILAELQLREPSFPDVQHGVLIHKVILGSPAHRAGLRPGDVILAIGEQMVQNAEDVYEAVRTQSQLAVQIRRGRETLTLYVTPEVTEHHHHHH


Experiments:
[1] = molecular target: T1, Omi WT (wild-type mature Omi/HtrA2, …); assay: immunoprecipitation assay (data not shown)
[2] = molecular target: T2, GST fusion form of full-length human cIAP1 (human, UniProt Q13490 1-618); assay: cell-based or functional assay
[3] = molecular target: T2, GST fusion form of full-length human …; assay: GST pulldown on Glutathione Sepharose beads, Western blot (anti-GST, anti-Penta-His)
Description: To examine whether the differential in catalytic efficiency between Omi WT and OmiΔ8 was due to different binding affinities to IAPs, a GST-based pulldown assay was used to monitor the IAP binding affinities of Omi WT and OmiΔ8. Full-length cIAP1 (50 nM) was incubated with 100 nM of Omi WT and Omi mutants for 20 minutes at 4° C. in 50 μl of PBST. The samples were then incubated with 20 μl of Glutathione Sepharose beads (Amersham Biosciences, Piscataway, N.J.) for 30 minutes at 4° C. The beads were precipitated by centrifugation and washed briefly with 1.4 ml×3 of PBST. The proteins bound to the beads and left in the supernatant were separately mixed with SDS sample loading buffer and resolved by SDS-PAGE, then transferred to a nitrocellulose filter. The upper part of the filter was probed with an antibody against GST and the lower part with an antibody against Penta-His.

T2 sequence (Q13490 whole entry, the tested form may be a part): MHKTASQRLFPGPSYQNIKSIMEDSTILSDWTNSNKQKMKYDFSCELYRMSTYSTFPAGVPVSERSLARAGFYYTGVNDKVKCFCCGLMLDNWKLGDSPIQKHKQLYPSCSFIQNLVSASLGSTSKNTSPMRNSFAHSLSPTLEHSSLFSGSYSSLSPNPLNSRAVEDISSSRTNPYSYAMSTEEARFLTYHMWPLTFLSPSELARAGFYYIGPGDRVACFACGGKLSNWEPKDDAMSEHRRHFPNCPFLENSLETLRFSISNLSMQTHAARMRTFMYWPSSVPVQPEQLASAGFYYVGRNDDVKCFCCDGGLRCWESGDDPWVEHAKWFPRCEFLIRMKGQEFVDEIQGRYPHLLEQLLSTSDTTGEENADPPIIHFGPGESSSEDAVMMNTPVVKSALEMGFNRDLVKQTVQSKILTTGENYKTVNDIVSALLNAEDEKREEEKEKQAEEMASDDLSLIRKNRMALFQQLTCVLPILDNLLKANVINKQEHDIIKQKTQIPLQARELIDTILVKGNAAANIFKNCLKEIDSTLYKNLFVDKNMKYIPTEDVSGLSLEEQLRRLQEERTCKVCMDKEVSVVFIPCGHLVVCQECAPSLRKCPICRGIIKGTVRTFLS

| binding result [1] | relief of cIAP1 inhibition of caspase activity in HeLa extracts [2] | Binder | binding result [3] |
| --- | --- | --- | --- |
| no binding | 200 nM | Smac (purified recombinant) (other, UniProt Q9NR28 56-239, looked up, The construct is not described; also called Smac/DIABLO) AVPIAQKSEPHSLSSEALMRRAVSLVTDSTSTFLSQTTYALIEAITEYTKAVYTLTSLYRQYTSLLGKMNSEEEDEVWQVIIGARAEMTSKHQEYLKLETTWMTAVGLSEMAAEAAYQTGADQASITARNHIQLVKLQVEEVHQLSRKAETKLAEAQIEELRQKTQEEGEERAESEQEAYLRED | – |
| – | – | OmiΔ8 (Omi without the AVPS tetrapeptide, C-terminal hexa-His tagged) (enzyme, The name Δ8 may mean that 8 residues were deleted in the tested construct; also called Omi?8; OmiΔAVPS) PPPASPRSQYNFIADVVEKTAPAVVYIEILDRHPFLGREVPISNGSGFVVAADGLIVTNAHVVADRRRVRVRLLSGDTYEAVVTAVDPVADIATLRIQTKEPLPTLPLGRSADVRQGEFVVAMGSPFALQNTITSGIVSSAQRPARDLGLPQTNVEYIQTDAAIDFGNSGGPLVNLDGEVIGVNTMKVTAGISFAIPSDRLREFLHRGEKKNSSSGISGSQRRYIGVMMLTLSPSILAELQLREPSFPDVQHGVLIHKVILGSPAHRAGLRPGDVILAIGEQMVQNAEDVYEAVRTQSQLAVQIRRGRETLTLYVTPEVTEHHHHHH | no binding (tested: 100 nM Omi mutant with 50 nM cIAP1) |
